Measured values from patent US20100015130.

Tests used:
[1] = target: T1, GST-tagged mouse DISC1 fragment 596-852aa (UniProt Q811T9)
T1 sequence: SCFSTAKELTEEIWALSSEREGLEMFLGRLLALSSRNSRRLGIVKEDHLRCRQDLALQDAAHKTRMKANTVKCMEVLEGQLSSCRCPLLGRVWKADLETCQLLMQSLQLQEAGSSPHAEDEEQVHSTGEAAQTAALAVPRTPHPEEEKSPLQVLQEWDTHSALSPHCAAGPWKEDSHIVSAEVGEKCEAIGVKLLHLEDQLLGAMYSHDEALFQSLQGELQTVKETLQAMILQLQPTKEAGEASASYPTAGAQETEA

[2] = target: T2, GST-tagged mouse DISC1 fragment 221-355aa (UniProt Q811T9)
T2 sequence: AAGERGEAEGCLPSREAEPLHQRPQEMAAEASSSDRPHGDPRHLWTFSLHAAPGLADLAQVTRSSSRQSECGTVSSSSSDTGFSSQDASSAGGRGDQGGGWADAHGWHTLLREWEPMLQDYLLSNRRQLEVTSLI

[3] = target: T3, GST-tagged mouse DISC1 fragment 1-220aa (UniProt Q811T9)
T3 sequence: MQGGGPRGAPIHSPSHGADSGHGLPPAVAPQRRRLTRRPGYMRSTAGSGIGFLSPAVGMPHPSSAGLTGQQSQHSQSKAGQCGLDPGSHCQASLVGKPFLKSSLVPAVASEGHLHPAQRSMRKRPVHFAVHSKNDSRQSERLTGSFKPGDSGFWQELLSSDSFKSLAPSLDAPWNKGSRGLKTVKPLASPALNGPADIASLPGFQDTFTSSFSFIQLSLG

[4] = target: T4, GST-tagged mouse DISC1 fragment 356-595aa (UniProt Q811T9)
T4 sequence: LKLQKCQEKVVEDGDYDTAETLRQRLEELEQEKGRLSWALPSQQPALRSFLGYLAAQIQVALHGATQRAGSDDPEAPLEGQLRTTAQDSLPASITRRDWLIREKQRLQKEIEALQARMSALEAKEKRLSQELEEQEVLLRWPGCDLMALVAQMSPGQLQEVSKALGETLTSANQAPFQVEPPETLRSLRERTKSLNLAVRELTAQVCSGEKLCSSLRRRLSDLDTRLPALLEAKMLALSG

## GST-GSK3β (recombinant, Active Motif)
[1]
  in vitro kinase assay: GST-β-catenin phosphorylation, GST-axin phosphorylation and GSK3β autophosphorylation at Y216: none of the other 3 DISC1 fragments, GST-p25, or GST-CASK proteins inhibited GSK3β activity at this concentration (0.5 µM)
[2]
  GSK3β autophosphorylation (Y216), in vitro kinase assay: at higher concentrations (2 µM), DISC1 fragments spanning 221-355 and 356-595 started to inhibit GSK3β autophosphorylation
  in vitro kinase assay: GST-β-catenin phosphorylation, GST-axin phosphorylation and GSK3β autophosphorylation at Y216: none of the other 3 DISC1 fragments, GST-p25, or GST-CASK proteins inhibited GSK3β activity at this concentration (0.5 µM)
[3]
  GSK3β Y216 phosphorylation, dose response in vitro: no inhibition of GSK3β Y216 phosphorylation was observed at 0.1 µM and the inhibition of phosphorylation plateaued at 1 µM
  in vitro kinase assay: GST-β-catenin phosphorylation, GST-axin phosphorylation and GSK3β autophosphorylation at Y216: potently inhibited β-catenin, axin and GSK3β phosphorylation at 0.5 µM
[4]
  GSK3β autophosphorylation (Y216), in vitro kinase assay: at higher concentrations (2 µM), DISC1 fragments spanning 221-355 and 356-595 started to inhibit GSK3β autophosphorylation
  in vitro kinase assay: GST-β-catenin phosphorylation, GST-axin phosphorylation and GSK3β autophosphorylation at Y216: none of the other 3 DISC1 fragments, GST-p25, or GST-CASK proteins inhibited GSK3β activity at this concentration (0.5 µM)
